Measured values taken from paper PMC9798557 (Journal of Hematology & Oncology, 2022).

Target: T1, human CD38 (Homo sapiens, UniProt P28907)
T1 construct: CD38, human; Used for both the SPR and the cryo-EM complex; probably a soluble extracellular form
Experiment: SPR; Biacore 8 K
Settings: both partners purified

B1: daratumumab (antibody, V domains shown)
VH: EVQLLESGGGLVQPGGSLRLSCAVSGFTFNSFAMSWVRQAPGKGLEWVSAISGSGGGTYYADSVKGRFTISRDNSKNTLYLQMNSLRAEDTAVYFCAKDKILWFGEPVFDYWGQGTLVTVSS
VL: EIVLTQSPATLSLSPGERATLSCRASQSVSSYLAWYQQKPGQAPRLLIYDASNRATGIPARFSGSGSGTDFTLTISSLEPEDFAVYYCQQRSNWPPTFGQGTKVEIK
notes: heavy chain of daratumumab; light chain of daratumumab; Marketed anti-CD38 mAb used as a comparator
With B1 the Kd was 3.84 nM.
